Laboratory results taken from publication PMC10726160.

Target: GW182 (TNRC6A), short isoform (mouse (endogenous in OT-I CD8+ T cells))
Assay: co-IP; anti-GW182 antibody on Protein G Dynabeads; lysates of naive (d0) and d6 activated OT-I CD8+ T cells, 2 x 10^7 cells per IP; bound and unbound fractions blotted with Ago2 and GW182 antibodies

Substance: Argonaute 2 (Ago2) (from UniProt Q8CJG0 1-860) (natural protein)
- percent of Ago2 associated with immunoprecipitated GW182 (d6): 50%
